Measurements taken from publication PMC11825685 (Nature Communications, 2024).

How the values were obtained:
[1] = target: Mycobacterium tuberculosis (Mtb) PhoP, phosphorylated (Mycobacterium tuberculosis) (UniProt P71814); test: cryo-EM structure
[2] = target: RNAP holoenzyme (sigma A);GlnR (Mycobacterium …, UniProt P9WGZ1;P9WGY9;P9WGY7;P9WGY5;P9WGI1;O53830 1-347;1-1178;1-1316;1-110;1-528;1-255, |); test: EMSA
[3] = target: T1, Mtb RNAP β subunit (Mycobacterium tuberculosis, UniProt P9WGY9 1-1178); test: cryo-EM structure
T1 sequence: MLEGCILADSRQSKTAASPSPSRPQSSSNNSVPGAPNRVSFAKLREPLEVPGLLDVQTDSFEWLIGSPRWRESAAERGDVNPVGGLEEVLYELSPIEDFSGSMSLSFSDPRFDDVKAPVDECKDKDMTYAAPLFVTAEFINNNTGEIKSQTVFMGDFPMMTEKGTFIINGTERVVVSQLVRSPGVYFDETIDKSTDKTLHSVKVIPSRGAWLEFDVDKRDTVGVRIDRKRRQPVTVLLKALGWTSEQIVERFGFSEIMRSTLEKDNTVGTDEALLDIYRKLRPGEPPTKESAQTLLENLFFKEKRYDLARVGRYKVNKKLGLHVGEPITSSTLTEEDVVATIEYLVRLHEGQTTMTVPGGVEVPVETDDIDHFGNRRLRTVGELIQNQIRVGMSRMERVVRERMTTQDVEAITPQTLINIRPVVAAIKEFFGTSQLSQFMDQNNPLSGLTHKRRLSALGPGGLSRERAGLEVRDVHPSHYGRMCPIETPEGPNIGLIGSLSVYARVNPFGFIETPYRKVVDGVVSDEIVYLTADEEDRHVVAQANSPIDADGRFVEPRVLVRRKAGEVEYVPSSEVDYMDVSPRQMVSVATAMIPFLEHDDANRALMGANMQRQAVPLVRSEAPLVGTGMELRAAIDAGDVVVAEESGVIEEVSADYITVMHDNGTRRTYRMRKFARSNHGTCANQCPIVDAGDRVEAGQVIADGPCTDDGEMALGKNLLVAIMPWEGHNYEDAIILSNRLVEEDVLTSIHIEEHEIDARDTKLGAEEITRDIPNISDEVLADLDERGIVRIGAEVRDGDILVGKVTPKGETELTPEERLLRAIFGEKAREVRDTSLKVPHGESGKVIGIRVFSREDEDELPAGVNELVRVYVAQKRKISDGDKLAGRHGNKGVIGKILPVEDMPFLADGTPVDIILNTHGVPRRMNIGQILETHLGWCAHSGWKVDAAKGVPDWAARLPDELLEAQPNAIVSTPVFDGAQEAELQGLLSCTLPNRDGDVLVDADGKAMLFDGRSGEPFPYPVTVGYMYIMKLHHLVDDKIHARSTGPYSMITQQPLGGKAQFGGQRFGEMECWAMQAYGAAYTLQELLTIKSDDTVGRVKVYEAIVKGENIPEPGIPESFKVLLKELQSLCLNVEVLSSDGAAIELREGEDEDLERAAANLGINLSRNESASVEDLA

[4] = target: T2, Mtb RNAP σ^A (Mycobacterium tuberculosis, UniProt P9WGI1); test: cryo-EM structure
T2 sequence: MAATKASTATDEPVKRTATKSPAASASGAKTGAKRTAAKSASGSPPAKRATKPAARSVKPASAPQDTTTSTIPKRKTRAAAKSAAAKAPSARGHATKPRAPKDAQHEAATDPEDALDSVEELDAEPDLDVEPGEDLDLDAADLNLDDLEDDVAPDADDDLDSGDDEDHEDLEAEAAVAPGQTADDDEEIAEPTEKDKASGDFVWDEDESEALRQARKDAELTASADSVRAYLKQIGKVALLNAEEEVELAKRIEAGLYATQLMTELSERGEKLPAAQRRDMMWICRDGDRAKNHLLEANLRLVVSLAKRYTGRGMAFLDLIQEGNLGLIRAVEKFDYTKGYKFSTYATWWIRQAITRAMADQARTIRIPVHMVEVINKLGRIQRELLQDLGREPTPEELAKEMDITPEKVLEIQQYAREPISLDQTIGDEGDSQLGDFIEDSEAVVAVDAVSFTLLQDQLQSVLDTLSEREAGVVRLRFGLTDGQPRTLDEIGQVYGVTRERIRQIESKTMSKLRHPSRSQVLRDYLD

[5] = target: T3, Mtb RNAP α subunit (Mycobacterium tuberculosis, UniProt P9WGZ1); test: cryo-EM structure
T3 sequence: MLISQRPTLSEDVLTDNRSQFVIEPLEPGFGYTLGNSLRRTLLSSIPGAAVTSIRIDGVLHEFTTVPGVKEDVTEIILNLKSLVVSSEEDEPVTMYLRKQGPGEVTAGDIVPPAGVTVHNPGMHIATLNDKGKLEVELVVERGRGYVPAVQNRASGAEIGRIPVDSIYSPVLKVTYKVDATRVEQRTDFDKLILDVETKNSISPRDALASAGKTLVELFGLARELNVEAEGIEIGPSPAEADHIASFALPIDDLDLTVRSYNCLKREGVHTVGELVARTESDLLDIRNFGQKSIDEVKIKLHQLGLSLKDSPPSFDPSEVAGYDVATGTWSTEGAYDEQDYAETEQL

[6] = target: the molecule itself; test: cryo-EM structure

Mycobacterium tuberculosis (Mtb) PhoP, phosphorylated (from UniProt P71814 1-247) (natural protein)
stoichiometry N [1]: 2

B1: phoU promoter (mango-fused) (dsDNA)
DNA 1: ACCTCGAACACTCGTCGCCCAGAGTTCACCTTGGAGCCAGGGACGGTTCATTTGGGGTGCCGGAAACGGACGCGTACAGGCCGGAACGTGTAAGCGTGGGGGCACGGCGGGGGGCGCGAAGCCGGCACGTACGAAGGAAGGATTGGTATGTGGTATATTCGTACGTGCC
DNA 2: GGCACGTACGAATATACCACATACCAATCCTTCCTTCGTACGTGCCGGCTTCGCGCCCCCCGCCGTGCCCCCACGCTTACACGTTCCGGCCTGTACGCGTCCGTTTCCGGCACCCCAAATGAACCGTCCCTGGCTCCAAGGTGAACTCTGGGCGACGAGTGTTCGAGGT
binding result [2]: no binding

B2: Mtb GlnR (natural protein)
chain: MLELLLLTSELYPDPVLPALSLLPHTVRTAPAEASSLLEAGNADAVLVDARNDLSSGRGLCRLLSSTGRSIPVLAVVSEGGLVAVSADWGLDEILLLSTGPAEIDARLRLVVGRRGDLADQESLGKVSLGELVIDEGTYTARLRGRPLDLTYKEFELLKYLAQHAGRVFTRAQLLHEVWGYDFFGGTRTVDVHVRRLRAKLGPEHEALIGTVRNVGYKAVRPARGRPPAADPDDEDADPGRDGMQEPLVDPLRSQ
binding result [3]: binds
binding result [4]: binds
binding result [5]: binds
binding result [6]: binds
